The values that follow come from paper PMC4628882.

Experiment [1] addresses mouse melanocortin 1 receptor (mouse) (UniProt Q01727).
Experiment [2] deals with mouse melanocortin 4 receptor (mouse) (UniProt P56450).
Experiment [3] has as its target mouse melanocortin 3 receptor (mouse) (UniProt P33033).
The target in experiment [4] is mouse melanocortin 5 receptor (mouse) (UniProt P41149).
UniProt P41149, sequence (P41149 whole entry): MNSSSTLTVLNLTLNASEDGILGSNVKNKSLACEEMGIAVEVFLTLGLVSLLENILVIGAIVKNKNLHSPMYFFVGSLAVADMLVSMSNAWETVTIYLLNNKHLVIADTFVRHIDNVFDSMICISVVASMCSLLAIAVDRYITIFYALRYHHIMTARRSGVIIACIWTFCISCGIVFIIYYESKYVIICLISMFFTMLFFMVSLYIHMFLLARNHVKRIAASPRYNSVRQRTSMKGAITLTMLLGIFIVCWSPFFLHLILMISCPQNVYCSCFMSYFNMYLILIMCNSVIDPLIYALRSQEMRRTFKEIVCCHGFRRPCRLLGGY

UniProt Q01727, sequence (Q01727 whole entry): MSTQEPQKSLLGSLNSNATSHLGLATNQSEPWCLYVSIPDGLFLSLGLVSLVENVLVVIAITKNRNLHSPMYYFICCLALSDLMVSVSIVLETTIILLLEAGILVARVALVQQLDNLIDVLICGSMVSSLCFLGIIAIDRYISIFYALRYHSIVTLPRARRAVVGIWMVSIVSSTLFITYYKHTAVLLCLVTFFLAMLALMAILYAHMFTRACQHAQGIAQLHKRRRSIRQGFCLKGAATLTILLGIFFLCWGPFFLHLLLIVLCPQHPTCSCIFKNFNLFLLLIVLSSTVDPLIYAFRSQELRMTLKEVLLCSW
UniProt P33033, sequence (P33033 whole entry): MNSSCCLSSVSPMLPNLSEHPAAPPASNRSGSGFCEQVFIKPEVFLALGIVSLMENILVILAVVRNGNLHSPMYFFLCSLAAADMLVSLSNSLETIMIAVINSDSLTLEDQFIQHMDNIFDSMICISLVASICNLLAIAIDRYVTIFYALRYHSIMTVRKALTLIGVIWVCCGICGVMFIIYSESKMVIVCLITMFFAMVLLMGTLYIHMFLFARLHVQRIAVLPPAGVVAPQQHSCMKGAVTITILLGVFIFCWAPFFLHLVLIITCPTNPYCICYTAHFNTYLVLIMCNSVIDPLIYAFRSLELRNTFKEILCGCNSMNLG
UniProt P56450, sequence (P56450 whole entry): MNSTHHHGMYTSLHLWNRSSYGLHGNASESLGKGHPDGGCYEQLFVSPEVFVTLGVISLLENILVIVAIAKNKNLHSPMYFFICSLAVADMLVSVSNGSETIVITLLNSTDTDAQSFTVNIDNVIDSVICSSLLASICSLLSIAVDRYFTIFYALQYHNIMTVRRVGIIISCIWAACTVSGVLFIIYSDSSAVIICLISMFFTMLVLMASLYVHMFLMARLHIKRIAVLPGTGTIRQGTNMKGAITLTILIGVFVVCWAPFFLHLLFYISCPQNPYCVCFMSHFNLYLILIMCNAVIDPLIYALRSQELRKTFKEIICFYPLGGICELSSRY

Turning to “ClpB(535-548) (from UniProt P63284 535-548) (peptide)”, the agonist EC50, AlphaScreen cAMP assay on stably transfected HEK293 cells in experiment [1] was determined as 41000 nM.

In the case of α-MSH (peptide), the agonist EC50, AlphaScreen cAMP assay on stably transfected HEK293 cells in experiment [1] was 0.14 nM; in experiment [2] it was 2.9 nM; in experiment [3] it was 0.5 nM; in experiment [4] it was 0.51 nM.
